According to paper PMC11655355 (Nature, 2024):

Experiments:
[1] = biological target: RCD1–SRO–TAF4 (RST) domain from RCD1, RCD1-RST_(499–572) (UniProt Q8RY59); assay: ITC
[2] = biological target: T1, RCD1–SRO–TAF4 (RST) domain from RCD1, RCD1-RST_(499–572) (UniProt Q8RY59 499-572); assay: ITC
T1 sequence (looked up): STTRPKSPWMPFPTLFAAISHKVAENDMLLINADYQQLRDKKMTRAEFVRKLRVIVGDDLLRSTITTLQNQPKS

Molecule	fold difference in Kd between L- and D-enantiomer [1]	binding result [2]
D-DREB2A_(255–272), synthetic D-peptide (from UniProt O82132 255-272)	72 fold	–
SSDMFDVDELLRDLNGDD (peptide, UniProt O82132 255-272, looked up) [L-DREB2A_(255–272), synthetic peptide]	–	binds

Further lines, results first:

fold difference in Kd between L- and D-enantiomer [1]	binding result [2]	Molecule
500 fold	–	D-ANAC013_(254–274), synthetic D-peptide (from UniProt F4IED2 254-274)
15 fold	–	D-ANAC046_(319–338), synthetic D-peptide (from UniProt Q9SQQ6 319-338)
